Laboratory results as given in paper PMC6748273.

Assays:
Test in all cases: purified protein
Details in all cases: 1.2 mM L-Trp, 25 mM Tris, 5 mM MgCl2, 50 mM KCl, pH 7.5, 35 °C
purified protein [1] = substrate: CC(C)=CCOP(=O)(O)OP(=O)(O)O
purified protein [2] = substrate: CCC(=CCOP(=O)(O)OP(=O)(O)O)CC
purified protein [3] = substrate: O=P(O)(O)OP(=O)(O)OCc1ccc(Br)cc1
purified protein [4] = substrate: O=P(O)(O)OP(=O)(O)OCc1ccc(Cl)cc1
purified protein [5] = substrate: O=P(O)(O)OP(=O)(O)OCC=C1CCCC1
purified protein [6] = substrate: C/C(Br)=C/COP(=O)(O)OP(=O)(O)O
purified protein [7] = substrate: COc1cccc(COP(=O)(O)OP(=O)(O)O)c1
purified protein [8] = substrate: CC=CCOP(=O)(O)OP(=O)(O)O
purified protein [9] = substrate: O=P(O)(O)OP(=O)(O)OCc1ccccc1
purified protein [10] = substrate: COc1ccccc1COP(=O)(O)OP(=O)(O)O
purified protein [11] = substrate: O=P(O)(O)OP(=O)(O)OCc1ccc(F)cc1

B1: FgaPT2 (Aspergillus fumigatus Af293) (protein)
chain: MKAANASSAEAYRVLSRAFRFDNEDQKLWWHSTAPMFAKMLETANYTTPCQYQYLITYKECVIPSLGCYPTNSAPRWLSILTRYGTPFELSLNCSNSIVRYTFEPINQHTGTDKDPFNTHAIWESLQHLLPLEKSIDLEWFRHFKHDLTLNSEESAFLAHNDRLVGGTIRTQNKLALDLKDGRFALKTYIYPALKAVVTGKTIHELVFGSVRRLAVREPRILPPLNMLEEYIRSRGSKSTASPRLVSCDLTSPAKSRIKIYLLEQMVSLEAMEDLWTLGGRRRDASTLEGLSLVRELWDLIQLSPGLKSYPAPYLPLGVIPDERLPLMANFTLHQNDPVPEPQVYFTTFGMNDMAVADALTTFFERRGWSEMARTYETTLKSYYPHADHDKLNYLHAYISFSYRDRTPYLSVYLQSFETGDWAVANLSESKVKCQDAACQPTSLPPDLSKTGVYYSGLH
Purified protein [1]
  kcat: 0.833 ± 0.0167 s⁻¹
  kcat/Km: 5820 ± 467 M⁻¹ s⁻¹
Purified protein [2]
  kcat: 0.108 ± 0.00167 s⁻¹
  kcat/Km: 283 ± 16.7 M⁻¹ s⁻¹
Purified protein [3]
  kcat: 0.00223 ± 5e-05 s⁻¹
  kcat/Km: 7 ± 0.667 M⁻¹ s⁻¹
Purified protein [4]
  kcat: 0.00327 ± 6.67e-05 s⁻¹
  kcat/Km: 7.67 ± 0.5 M⁻¹ s⁻¹
Purified protein [5]
  kcat: 0.084 ± 0.003 s⁻¹
  kcat/Km: 267 ± 33.3 M⁻¹ s⁻¹
Purified protein [6]
  kcat: 0.00783 ± 0.000167 s⁻¹
  kcat/Km: 21.7 ± 1.67 M⁻¹ s⁻¹
Purified protein [7]
  kcat: 0.00283 ± 8.33e-05 s⁻¹
  kcat/Km: 3.83 ± 0.333 M⁻¹ s⁻¹
Purified protein [8]
  kcat: 0.0095 ± 0.000333 s⁻¹
  kcat/Km: 65 ± 6.67 M⁻¹ s⁻¹
Purified protein [9]
  kcat: 0.0227 ± 0.000333 s⁻¹
  kcat/Km: 103 ± 5 M⁻¹ s⁻¹
Purified protein [10]
  kcat: 0.0322 ± 0.000833 s⁻¹
  kcat/Km: 56.7 ± 3.33 M⁻¹ s⁻¹
Purified protein [11]
  kcat: 0.0046 ± 6.67e-05 s⁻¹
  kcat/Km: 11.5 ± 0.667 M⁻¹ s⁻¹
